From patent publication US20220119490A1 (Genentech, published 2022)
Values belong to the binder of their own block, whether it stands above or below them.

Tests used:
PTPRS expressed on cells = molecular target: T1, PTPRS expressed on cells (human, UniProt Q13332 30-1948); assay: cell surface interaction assay: streptavidin-tetramerized biotinylated ECD on transfected cells, immunofluorescence
T1 construct: whole, on cells; also called receptor-type tyrosine-protein phosphatase S

PTPRD expressed on cells = molecular target: T2, PTPRD expressed on cells (human, UniProt P23468 21-1912); assay: as above
T2 construct: whole, on cells; also called receptor-type tyrosine-protein phosphatase delta

PTPRT expressed on cells = molecular target: T3, PTPRT expressed on cells (human, UniProt O14522 26-1441); assay: cell surface interaction assay: query ECD tetramerised with fluorescent streptavidin on transfected cells, immunofluorescence
T3 construct: whole, on cells
T3 sequence (looked up): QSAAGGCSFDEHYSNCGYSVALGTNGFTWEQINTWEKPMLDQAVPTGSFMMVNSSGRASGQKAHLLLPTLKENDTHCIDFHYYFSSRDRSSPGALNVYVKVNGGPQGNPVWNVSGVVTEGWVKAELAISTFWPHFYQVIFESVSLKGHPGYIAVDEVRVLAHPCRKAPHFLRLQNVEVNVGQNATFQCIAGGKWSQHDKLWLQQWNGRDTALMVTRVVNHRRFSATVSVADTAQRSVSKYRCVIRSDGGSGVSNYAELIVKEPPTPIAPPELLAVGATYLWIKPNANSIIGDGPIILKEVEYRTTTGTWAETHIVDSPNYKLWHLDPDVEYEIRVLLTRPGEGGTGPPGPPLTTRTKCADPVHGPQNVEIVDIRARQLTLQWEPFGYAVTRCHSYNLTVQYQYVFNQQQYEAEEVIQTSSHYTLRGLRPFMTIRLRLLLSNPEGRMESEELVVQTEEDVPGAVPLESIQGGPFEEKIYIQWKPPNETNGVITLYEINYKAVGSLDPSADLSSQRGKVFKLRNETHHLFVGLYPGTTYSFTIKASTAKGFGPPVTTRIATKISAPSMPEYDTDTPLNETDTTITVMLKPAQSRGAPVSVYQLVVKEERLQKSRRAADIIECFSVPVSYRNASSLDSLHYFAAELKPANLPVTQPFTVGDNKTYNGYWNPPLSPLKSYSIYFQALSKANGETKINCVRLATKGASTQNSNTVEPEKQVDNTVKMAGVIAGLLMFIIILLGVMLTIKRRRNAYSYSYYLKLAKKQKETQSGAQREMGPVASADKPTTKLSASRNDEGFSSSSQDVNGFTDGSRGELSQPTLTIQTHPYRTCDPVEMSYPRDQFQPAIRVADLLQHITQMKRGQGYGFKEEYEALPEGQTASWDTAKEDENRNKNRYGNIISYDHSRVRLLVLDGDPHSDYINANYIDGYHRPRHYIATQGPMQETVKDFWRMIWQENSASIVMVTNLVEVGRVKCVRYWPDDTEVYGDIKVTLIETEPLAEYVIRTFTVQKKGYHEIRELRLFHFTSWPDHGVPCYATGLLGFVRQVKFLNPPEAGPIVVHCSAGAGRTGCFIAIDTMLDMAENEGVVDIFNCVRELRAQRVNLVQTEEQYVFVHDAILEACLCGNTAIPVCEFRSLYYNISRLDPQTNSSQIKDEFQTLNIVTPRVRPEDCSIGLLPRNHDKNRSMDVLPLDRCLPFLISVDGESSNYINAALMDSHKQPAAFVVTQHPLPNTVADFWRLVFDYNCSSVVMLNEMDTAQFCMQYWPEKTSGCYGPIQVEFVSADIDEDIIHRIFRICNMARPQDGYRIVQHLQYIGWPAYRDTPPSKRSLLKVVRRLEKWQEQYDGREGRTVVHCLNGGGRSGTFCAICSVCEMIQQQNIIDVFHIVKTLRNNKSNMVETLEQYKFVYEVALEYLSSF

PTPRM expressed on cells = molecular target: T4, PTPRM expressed on cells (human, UniProt P28827 21-1452); assay: as above
T4 construct: whole, on cells
T4 sequence (P28827 21-1452): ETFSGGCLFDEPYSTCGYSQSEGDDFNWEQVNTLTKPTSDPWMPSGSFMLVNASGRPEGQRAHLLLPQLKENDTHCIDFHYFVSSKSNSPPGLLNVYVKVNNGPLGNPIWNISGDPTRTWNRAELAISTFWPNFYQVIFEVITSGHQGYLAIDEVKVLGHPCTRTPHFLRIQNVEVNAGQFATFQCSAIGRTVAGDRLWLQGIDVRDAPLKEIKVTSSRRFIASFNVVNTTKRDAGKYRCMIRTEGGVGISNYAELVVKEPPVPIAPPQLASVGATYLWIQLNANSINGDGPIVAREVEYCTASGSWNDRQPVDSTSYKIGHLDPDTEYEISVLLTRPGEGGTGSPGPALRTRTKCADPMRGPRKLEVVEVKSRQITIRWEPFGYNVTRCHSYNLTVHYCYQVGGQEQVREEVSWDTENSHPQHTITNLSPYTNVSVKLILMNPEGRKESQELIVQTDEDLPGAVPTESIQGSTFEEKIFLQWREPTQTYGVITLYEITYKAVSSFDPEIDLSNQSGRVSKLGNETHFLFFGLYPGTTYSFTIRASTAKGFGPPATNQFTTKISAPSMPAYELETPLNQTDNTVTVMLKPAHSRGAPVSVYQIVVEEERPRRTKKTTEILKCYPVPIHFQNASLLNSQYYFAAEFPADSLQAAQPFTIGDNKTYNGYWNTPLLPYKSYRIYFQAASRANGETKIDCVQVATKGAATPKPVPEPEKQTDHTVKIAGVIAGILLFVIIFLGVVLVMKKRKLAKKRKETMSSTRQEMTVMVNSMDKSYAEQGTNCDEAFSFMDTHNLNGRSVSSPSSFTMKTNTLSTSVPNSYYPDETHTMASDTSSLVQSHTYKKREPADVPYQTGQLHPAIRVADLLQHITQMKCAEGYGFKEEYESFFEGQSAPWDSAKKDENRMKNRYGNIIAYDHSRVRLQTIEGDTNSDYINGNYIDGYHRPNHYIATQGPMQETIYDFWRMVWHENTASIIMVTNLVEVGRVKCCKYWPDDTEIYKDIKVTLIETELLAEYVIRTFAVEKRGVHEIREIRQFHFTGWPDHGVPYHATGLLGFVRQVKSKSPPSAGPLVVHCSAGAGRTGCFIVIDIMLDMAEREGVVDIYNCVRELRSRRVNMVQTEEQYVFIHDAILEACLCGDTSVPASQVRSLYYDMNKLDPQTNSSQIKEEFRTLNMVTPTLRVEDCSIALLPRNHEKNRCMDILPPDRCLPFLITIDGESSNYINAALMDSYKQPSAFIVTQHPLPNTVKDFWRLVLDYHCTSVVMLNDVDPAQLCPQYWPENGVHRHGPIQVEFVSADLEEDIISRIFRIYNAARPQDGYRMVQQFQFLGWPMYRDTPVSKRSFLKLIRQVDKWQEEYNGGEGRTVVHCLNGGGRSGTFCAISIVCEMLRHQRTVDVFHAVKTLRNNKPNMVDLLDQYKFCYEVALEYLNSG

[1] = molecular target: T5, PTPRZ1 expressed on cells (human, UniProt P23471 25-2315); assay: as above
T5 construct: whole, on cells

PTPRG expressed on cells = molecular target: T6, PTPRG expressed on cells (human, UniProt P23470 20-1445); assay: as above
T6 construct: whole, on cells
T6 sequence (P23470 20-1445): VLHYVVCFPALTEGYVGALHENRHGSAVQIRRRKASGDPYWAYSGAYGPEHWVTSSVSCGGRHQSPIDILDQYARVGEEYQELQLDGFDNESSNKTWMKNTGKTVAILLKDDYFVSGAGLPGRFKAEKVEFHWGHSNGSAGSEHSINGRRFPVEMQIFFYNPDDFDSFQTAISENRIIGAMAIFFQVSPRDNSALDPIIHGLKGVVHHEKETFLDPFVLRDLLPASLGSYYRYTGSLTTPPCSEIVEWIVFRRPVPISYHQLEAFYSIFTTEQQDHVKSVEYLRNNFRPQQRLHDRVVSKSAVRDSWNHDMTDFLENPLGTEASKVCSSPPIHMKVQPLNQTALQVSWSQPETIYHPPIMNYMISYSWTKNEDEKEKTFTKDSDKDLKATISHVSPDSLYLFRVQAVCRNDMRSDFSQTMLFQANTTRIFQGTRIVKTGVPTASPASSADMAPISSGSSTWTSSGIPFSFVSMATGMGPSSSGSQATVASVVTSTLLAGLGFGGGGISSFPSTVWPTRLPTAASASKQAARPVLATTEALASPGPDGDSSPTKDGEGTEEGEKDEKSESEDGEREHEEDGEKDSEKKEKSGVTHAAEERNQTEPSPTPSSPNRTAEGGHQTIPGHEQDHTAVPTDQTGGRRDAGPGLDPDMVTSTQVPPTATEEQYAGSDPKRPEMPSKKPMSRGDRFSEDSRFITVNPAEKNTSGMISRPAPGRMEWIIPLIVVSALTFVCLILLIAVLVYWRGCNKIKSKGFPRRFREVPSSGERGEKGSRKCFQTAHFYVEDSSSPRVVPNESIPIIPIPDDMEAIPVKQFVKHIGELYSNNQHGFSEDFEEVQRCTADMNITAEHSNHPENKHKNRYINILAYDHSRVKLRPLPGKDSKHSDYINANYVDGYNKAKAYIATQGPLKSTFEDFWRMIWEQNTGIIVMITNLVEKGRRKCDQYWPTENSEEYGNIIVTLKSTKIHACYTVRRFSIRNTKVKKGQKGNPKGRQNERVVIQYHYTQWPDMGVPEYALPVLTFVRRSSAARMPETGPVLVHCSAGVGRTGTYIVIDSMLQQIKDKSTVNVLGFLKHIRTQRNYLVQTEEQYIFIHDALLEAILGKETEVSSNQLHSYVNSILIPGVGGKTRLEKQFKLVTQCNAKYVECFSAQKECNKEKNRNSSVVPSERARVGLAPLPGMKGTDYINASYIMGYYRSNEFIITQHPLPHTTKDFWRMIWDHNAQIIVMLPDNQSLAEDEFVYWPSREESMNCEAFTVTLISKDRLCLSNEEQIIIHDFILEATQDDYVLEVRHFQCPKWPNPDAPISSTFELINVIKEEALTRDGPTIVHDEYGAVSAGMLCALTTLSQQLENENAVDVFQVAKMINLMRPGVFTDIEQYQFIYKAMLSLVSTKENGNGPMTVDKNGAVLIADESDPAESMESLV

PTPRO expressed on cells = molecular target: T7, PTPRO expressed on cells (human, UniProt Q16827 30-1216); assay: as above
T7 construct: whole, on cells
T7 sequence (looked up): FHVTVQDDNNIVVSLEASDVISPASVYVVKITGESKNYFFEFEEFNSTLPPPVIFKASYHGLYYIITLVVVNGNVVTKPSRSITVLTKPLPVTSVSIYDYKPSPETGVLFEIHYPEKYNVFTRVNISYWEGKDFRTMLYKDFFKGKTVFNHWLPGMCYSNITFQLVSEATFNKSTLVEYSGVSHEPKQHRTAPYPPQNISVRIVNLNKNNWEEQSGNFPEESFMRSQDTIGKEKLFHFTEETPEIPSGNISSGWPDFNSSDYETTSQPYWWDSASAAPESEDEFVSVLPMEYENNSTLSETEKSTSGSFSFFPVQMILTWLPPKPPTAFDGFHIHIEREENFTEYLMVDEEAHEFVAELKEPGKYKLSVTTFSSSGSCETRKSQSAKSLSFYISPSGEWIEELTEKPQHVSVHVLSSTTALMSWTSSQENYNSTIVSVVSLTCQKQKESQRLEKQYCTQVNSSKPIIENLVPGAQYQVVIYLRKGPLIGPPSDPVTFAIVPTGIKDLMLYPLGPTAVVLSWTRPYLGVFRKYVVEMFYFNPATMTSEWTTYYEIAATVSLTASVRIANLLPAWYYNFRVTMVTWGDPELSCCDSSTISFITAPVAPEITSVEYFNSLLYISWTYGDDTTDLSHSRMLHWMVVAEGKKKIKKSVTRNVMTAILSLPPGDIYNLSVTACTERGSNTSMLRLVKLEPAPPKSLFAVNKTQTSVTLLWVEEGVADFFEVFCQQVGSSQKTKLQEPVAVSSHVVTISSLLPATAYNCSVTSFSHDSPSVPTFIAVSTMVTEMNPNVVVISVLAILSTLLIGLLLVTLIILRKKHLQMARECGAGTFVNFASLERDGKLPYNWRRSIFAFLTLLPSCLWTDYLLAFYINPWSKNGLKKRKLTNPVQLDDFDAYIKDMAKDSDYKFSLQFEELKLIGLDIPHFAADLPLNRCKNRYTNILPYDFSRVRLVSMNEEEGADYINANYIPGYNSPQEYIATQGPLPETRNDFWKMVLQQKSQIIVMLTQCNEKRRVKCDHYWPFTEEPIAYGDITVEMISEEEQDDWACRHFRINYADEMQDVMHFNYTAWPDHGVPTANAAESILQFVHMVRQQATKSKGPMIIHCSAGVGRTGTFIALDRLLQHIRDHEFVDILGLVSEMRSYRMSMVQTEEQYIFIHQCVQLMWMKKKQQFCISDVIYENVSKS

PTPRF expressed on cells = molecular target: T8, PTPRF expressed on cells (human, UniProt P10586 30-1907); assay: as above
T8 construct: whole, on cells; also called receptor-type tyrosine-protein phosphatase F

[2] = molecular target: T9, BTN3A1 full-length (co-IP) (human, UniProt O00481 30-513); assay: co-immunoprecipitation from co-transfected cells, IP anti-FLAG, western blot anti-HA
T9 construct: whole, on cells; also called BTN3A1-HA

[3] = molecular target: T10, LRRC4B expressed on cells (human, UniProt Q9NT99 36-713); assay: cell surface interaction assay: query ECD tetramerised with fluorescent streptavidin on transfected cells, immunofluorescence
T10 construct: whole, on cells; C-terminally tagged in the co-IP; also called NGL-3; LRRC4B-FLAG
T10 sequence (looked up): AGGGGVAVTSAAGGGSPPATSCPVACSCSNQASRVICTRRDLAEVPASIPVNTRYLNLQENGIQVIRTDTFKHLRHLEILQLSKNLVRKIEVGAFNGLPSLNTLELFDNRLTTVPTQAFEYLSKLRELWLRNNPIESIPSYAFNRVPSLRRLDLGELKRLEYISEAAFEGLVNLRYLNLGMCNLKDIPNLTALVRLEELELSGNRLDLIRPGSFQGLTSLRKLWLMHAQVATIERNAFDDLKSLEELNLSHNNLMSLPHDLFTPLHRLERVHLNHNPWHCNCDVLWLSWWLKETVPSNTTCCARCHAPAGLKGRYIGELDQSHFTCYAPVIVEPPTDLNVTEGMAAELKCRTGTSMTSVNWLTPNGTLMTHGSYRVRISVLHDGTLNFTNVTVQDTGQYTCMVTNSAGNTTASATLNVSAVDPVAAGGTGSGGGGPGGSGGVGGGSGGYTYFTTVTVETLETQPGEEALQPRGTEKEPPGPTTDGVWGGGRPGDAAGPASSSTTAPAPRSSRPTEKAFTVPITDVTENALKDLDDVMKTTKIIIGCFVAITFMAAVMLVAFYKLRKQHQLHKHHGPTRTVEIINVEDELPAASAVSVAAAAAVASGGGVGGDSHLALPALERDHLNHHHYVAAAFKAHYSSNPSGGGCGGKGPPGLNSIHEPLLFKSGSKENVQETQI

T1 sequence (Q13332 30-1948): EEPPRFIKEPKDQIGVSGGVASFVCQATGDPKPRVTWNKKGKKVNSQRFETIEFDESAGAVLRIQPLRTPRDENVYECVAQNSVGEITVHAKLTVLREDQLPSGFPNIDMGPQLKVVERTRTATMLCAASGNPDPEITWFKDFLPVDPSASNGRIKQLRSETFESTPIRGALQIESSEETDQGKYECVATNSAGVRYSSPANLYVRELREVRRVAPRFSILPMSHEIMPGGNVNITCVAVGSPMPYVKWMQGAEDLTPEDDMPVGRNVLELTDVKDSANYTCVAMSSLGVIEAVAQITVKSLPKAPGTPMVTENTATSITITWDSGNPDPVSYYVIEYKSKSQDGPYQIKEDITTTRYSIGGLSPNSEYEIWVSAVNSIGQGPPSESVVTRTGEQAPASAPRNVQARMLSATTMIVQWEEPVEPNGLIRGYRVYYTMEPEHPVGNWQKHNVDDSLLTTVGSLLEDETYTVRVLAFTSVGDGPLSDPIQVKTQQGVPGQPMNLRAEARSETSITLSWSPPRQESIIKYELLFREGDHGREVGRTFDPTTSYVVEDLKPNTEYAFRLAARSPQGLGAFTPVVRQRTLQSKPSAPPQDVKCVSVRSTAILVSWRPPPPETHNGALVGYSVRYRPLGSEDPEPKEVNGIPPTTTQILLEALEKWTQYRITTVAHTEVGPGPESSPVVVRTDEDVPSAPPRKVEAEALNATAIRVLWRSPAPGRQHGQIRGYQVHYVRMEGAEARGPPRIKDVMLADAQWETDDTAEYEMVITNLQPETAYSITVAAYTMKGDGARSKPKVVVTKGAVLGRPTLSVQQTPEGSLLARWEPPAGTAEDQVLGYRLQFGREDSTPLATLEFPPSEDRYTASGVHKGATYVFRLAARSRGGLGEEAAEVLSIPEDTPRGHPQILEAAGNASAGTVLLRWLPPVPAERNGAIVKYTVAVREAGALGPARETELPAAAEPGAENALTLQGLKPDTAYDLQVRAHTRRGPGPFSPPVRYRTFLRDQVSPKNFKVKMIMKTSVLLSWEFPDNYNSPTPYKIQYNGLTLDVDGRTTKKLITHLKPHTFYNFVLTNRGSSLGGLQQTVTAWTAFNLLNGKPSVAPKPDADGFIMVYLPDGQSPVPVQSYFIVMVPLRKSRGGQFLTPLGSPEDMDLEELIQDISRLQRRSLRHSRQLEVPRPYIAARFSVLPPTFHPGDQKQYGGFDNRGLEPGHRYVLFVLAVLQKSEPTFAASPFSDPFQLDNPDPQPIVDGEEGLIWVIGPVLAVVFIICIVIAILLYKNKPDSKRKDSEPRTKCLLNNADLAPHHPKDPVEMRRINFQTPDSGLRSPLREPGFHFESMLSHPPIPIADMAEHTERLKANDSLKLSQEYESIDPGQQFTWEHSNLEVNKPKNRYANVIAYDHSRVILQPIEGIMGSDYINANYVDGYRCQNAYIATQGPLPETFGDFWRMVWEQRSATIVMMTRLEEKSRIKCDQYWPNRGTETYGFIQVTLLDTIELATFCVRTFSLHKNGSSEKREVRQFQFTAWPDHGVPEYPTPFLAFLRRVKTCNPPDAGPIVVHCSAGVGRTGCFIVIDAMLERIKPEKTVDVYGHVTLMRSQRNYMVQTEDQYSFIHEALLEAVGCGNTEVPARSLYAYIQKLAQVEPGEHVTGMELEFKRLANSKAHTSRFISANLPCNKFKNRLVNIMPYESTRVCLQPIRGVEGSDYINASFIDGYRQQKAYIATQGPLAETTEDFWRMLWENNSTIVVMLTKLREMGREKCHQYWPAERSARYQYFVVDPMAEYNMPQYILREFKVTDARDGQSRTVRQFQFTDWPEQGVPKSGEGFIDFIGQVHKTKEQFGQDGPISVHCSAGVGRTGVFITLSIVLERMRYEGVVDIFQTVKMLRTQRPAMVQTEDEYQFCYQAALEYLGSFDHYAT

binding result (PTPRS expressed on cells): binds | binding result (PTPRD expressed on cells): binds | binding result (PTPRT expressed on cells): no binding | binding result (PTPRM expressed on cells): no binding | binding result [1]: no binding | binding result (PTPRG expressed on cells): no binding | binding result (PTPRO expressed on cells): no binding | binding result (PTPRF expressed on cells): no binding
B1: SLITRK2 extracellular domain (receptor, human, UniProt Q9H156 22-621, looked up)
chain: RKTAKDICKIRCLCEEKENVLNINCENKGFTTVSLLQPPQYRIYQLFLNGNLLTRLYPNEFVNYSNAVTLHLGNNGLQEIRTGAFSGLKTLKRLHLNNNKLEILREDTFLGLESLEYLQADYNYISAIEAGAFSKLNKLKVLILNDNLLLSLPSNVFRFVLLTHLDLRGNRLKVMPFAGVLEHIGGIMEIQLEENPWNCTCDLLPLKAWLDTITVFVGEIVCETPFRLHGKDVTQLTRQDLCPRKSASDSSQRGSHADTHVQRLSPTMNPALNPTRAPKASRPPKMRNRPTPRVTVSKDRQSFGPIMVYQTKSPVPLTCPSSCVCTSQSSDNGLNVNCQERKFTNISDLQPKPTSPKKLYLTGNYLQTVYKNDLLEYSSLDLLHLGNNRIAVIQEGAFTNLTSLRRLYLNGNYLEVLYPSMFDGLQSLQYLYLEYNVIKEIKPLTFDALINLQLLFLNNNLLRSLPDNIFGGTALTRLNLRNNHFSHLPVKGVLDQLPAFIQIDLQENPWDCTCDIMGLKDWTEHANSPVIINEVTCESPAKHAGEILKFLGREAICPDSPNLSDGTVLSMNHNTDTPRSLSVSPSSYPELHTEVPLSVL
notes: extracellular domain; Soluble query, streptavidin tetramer; also called SLITKR2

binding result [2]: no binding
B2: VSIG8-FLAG (receptor, human, UniProt P0DPA2 22-414, looked up)
immunoprecipitated protein: VRINGDGQEVLYLAEGDNVRLGCPYVLDPEDYGPNGLDIEWMQVNSDPAHHRENVFLSYQDKRINHGSLPHLQQRVRFAASDPSQYDASINLMNLQVSDTATYECRVKKTTMATRKVIVTVQARPAVPMCWTEGHMTYGNDVVLKCYASGGSQPLSYKWAKISGHHYPYRAGSYTSQHSYHSELSYQESFHSSINQGLNNGDLVLKDISRADDGLYQCTVANNVGYSVCVVEVKVSDSRRIGVIIGIVLGSLLALGCLAVGIWGLVCCCCGGSGAGGARGAFGYGNGGGVGGGACGDLASEIREDAVAPGCKASGRGSRVTHLLGYPTQNVSRSLRRKYAPPPCGGPEDVALAPCTAAAACEAGPSPVYVKVKSAEPADCAEGPVQCKNGLLV
notes: full-length, tagged; also called VSIG8 full-length (co-IP)

binding result [3]: no binding
B3: BTN2A2 extracellular domain (receptor, human, UniProt Q8WVV5 33-265, looked up)
chain: QFTVVGPANPILAMVGENTTLRCHLSPEKNAEDMEVRWFRSQFSPAVFVYKGGRERTEEQMEEYRGRITFVSKDINRGSVALVIHNVTAQENGIYRCYFQEGRSYDEAILRLVVAGLGSKPLIEIKAQEDGSIWLECISGGWYPEPLTVWRDPYGEVVPALKEVSIADADGLFMVTTAVIIRDKYVRNVSCSVNNTLLGQEKETVIFIPESFMPSASPWMVALAVILTASPWM
notes: extracellular domain; Soluble query, streptavidin tetramer
